Our source for the protein production values is a protein production outcome set (Wang et al. 2014).
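Further: failed if final PepcDB status was selected cloned or expressed and not failed if soluble or beyond.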

This series is described as follows: label from the status in PepcDB records.
Regarding “MQNNKTKLLDEVATYYAEKLAEHGDTPRGVDWNGEESQTIRFEQLCKVIDPKKMPGFSLNDLGCGYGALLDYLRDKYAACIYLGVDVSHEMIKAARQRHTAANQARFITSTEPDQVADYGVASGIFNVRLERTDAEWFDYLLGTLDVLNRTSSLGFAFNCLTSYSDEDKKRDYLYYADPCRLFDLCKRRYSRQVALLHDYGLYEFTILIRKALEHHHHHH”, the protein production entry was “failed”.
Then “MNKIQVLDPVTIDKIAAGEVIERPASVVKELVENAIDAGATAIVTEIEEGGISMIRIADNGCGMDASDVPNAFLRHSTSKIRTVEDLVHIGSLGFRGEALSSIAAVSQVEMITKTKDQVLGTRYRIAGGKEEELDETGARDGTTFLIRQLFYNTPARRKFLKTPMTEASHVGDLLTRMALSHPEISFQFINNGQSKLHTSGNGNLKDVIYHVYGREIAANLLAADYESPGLKIRGFLGKPLISRGNRNFENYFINGRYVKSSIISKAIEDAYKDFTMQHKYPFVVLHIEIDGEHVDVNVHPTKMELRFNNQQEVYNSIYAAVDHGLHAEELIPHVEVDAPKAAAPMKQEGGAPHAAQKKDNPVVPDRTTSVQPAPSAKKSVPAPEERTLDYFMQKMKERVAAYHAQQNQEAPKKAPDVKVSAQPSEDRREAPSDRVCETPEYAAQQLNLFEENLVERKVQAEYKIIGQVFETYWLVEFNDSLYIIDQHAAHERVLYEKTLKSMKTREFTSQFISPPIVLDLSMQEAELLNQYMDQFTRIGFEIEEFGQESYAVRAVPGNLFGIAKKDLLLQMLDGLSDEVSRNLSPDMIDEKVASMSCKAAVKGNMKLSATEVDSLIGELLTLENPYHCPHGRPTIIAMTKRELEKKFKRIV”, with “failed”; and “EPAEIKIIREAYKKAFLFVNKGLNTDELGQKEEAKNYYKQGIGHLLRGISISSKESEHTGPGWESARQMQQKMKETLQNVRTRLEILEKGLATSLQNDLQEVP”, with “not failed”; and “MTMKKSEITVALAGNANVGKSVIFNQLTGSNQIVGNWPGKTVERAEGYLKFQGRDIHIIDLPGIYSFSTYSMEEIVSRDFIINEGPDVVINVLDASVLERNLFFTLQLMEMEVPMVICINQVDMARQKGITIDDEKLEKVLGVPVVSTVAVKGRGLQELLRKTVEVADKKTLPRIIEYGEEIETRIGKLMDALPEIPEGYSARWVAIKLLENDPQITAMMPEDVRKLASELAAEIESIHGEPAFSVITSERYAISSMIAAGAQRQEEIKTSLSERLDGFLTHPVYGYISSVLVVGGLLLWTFVVGEFLSDTLTGIFGFFQPVDPKFSGSIESIIWNGAFGGIVAGLTLVIPFVIPFYLMLSYIENSGLLTRVAFMMDAFMRKIGLHGKALIPLILGYGCSVPAIDSTRILETHRERLLAAFAISFAPCAARTILILGLVALFVNVWWAIGLYALDLLIIFIMGKVALKALPGETTGLIMEMHSLKMPSFRVIARQTWTRTRSLIYLVFPIYIIGSALIQLLYALGWLNPISAFMAPLTVGWLKLPVFAGILLILGAVRKEFILLGLVSLVGTNIGAALTAPQILVLTLVGMLYFPCLSTIAILAREFSWRSTSIITLANLGTALFLGGLFARILPLIF”, with “failed”.
Then “MRRLLTAVLISTLGAASLVRADGPAPFSKVFEDISADQPGCAAGVMRGGKVIWSAGYGAADLTTGAAIQADTLFNLASVSKQFTGFAILQLQAQGRLSLEDPVRRFLPELPAYAQGIRIRHLLHHTSGLQDYMLLAELAGIPLSQRFTQQQALDLLVRQNSLMFPPGSEFSYSNSGYVLLSSIVERASGLSLKHYSRANIFLPLGMDHSSIVDQYPVQLPNLARGYEPGGQGKAQVAVDARWEQTGDGQVHSNVADLMRWLRNLSTGRVGGKALVENMRQTEPLNDGDPGYYGMGLANRSYRGLQELSHSGGWAGFNTDVAWYPKLDVATVVLCNSDDGRASERGRQLLDTLLGSPAPSGEADIPPPPPSIRALPKASLKTLVAGTYLDDGGHQLQLRRSGKGWSLETFPDVLPLTRQSDEVLVADNDGTPIYLAATSGGRIALNNPASTYALAPPWKPDDIRPYVGLYTLETSPGQLKVHARQGKLYVRIGLYTYPMQPLTAERFSAGELGVLSFAEQGAVLTSSVARNLRFGKVFAP”, with “failed”.
On to “MTDPLIPVDTYLVDSLPEVWFGAVVFALGMYIVLDGFDFGIGMLYATRTDEHERETFLAAFGPVWDANEVWIVAFGTMLLAAFPRVYSRLLADNYLLALGFVVALVFRGLGPELREQREDERWKRYTDYAFVGGSVFAPLLLGMLAGRWLFAGATLPVVLTGVGLVAVSIVTGAAFLAAKTDSGLASELRSYGVGATVAYLGGVVVLLGTVVATDAGGAASAVLSLPVAAVVALSIVAGLGGSVLARRGRYRAWLASALALPTLLTLLVAVLLYPTVYPPTGLLVREAVVSPLALNLVTVLGFPVLLLVLWYFKFLYGVFSGPIEGEGYGG”, for which the protein production result is on record as “failed”.
Regarding “MVTQNKLKKLVLGLSLIAASSAAMATTDTAKPNILAIWGDDIGPFNISAYNRGIMGYKTPNIDRIANEGIIFTDSYGDQSCTAGRAGFITGQHPMRTGLTKVGLPGAKEGLNKKDPTIAELLKPHGYMTGQFGKNHLGDQDEHLPTNHGFDEFFGNLYHLNAEDEPEHPDYPKDPAFKKRFGPRGAIHSFADGKITDTGPVTKKRMETIDEEFLGAALKFIDKAHAAKKPFFVWFNSTRMHVWTRLKPESDGVTGQGLYADGMVEHDGHVGQLLDKIDKLGIAENTIIMYTTDNGAELALWPDGGYTPFRGEKNTNWEGGYRVPMMVKWAGKIKPNQVSNEMISLIDWMPTILAVAGDTNIKSKLKKGTNVGGTKFKVHLDGYNFLPHFLDTTKEGPRKEFIYSSDTGDIVGLRYEDYKFVFKEQRAHGLEVWQNPWTTLRAPKIFNLRMDPYERMDHESEGYGQWWAEHMFLMAPAMMKVAQFKATFKEFPQRQKPGSFVP”, the protein production entry is “failed”.
Turning to “MSDHHHHDHHLGCACCALPLLELLDQPQLSQDEWQRELETLAPELGKRFPRPGQQESAIFHGGSIRPLAAAGPSRVAALGMSGGRIVAMGDLDDVRAAMASHRPFREIDLDGRALLPGLVDPHMHIMPSALFKSWISLSAFGVTRNSQDGEDAQVLNPDYSYQQIKDKLLPAIAQAKQPGAASNWVLGFGVDPSLMREWVDIKASSLDELAPPDDNIAVFLLNASGHIGYANTAAMKEAGLTPEQIKKCEGVLTEANIIQIMGKIPKRILAKDLLRNLLMVLHDAASRGNTMLFDAGLGSSLKEAEVRLLQLIAKLGLSPVRIAGALYSNELTQMRQWMKLYQPDLNSQDDSHFSIKALKLVADGSNQGLTGFQFSPYKNVAQHPVPDVPPIGLFNFKIPDAPSSENENRLPDSLASYLHLALGSGWPVLVHSNGEQAMELVLDSYQEAISATRADARHLRLRVEHASLLTDATLSRMASMGLSPSFLIGHVGYWGYALQNDILGEARTELLDRCKSARDAGIRISLHSDHFVSPLGSLRMAEQAIYRKMEGAPQEEKPVLNKEECLSHEQALAAVTLDAAWQCHMDHLVGSLEPGKLADMVILGQDPLDDGVTDLRHINVHETWRGGARVYANPNTH”, the protein production entry is reported as “failed”.
As to “MLSKRDAILKAAVEVFGKKGYDRATTDEIAEKAGVAKGLIFHYFKNKEELYYQAYMSVTEKLQKEFENFLMKNRNRDIFDFMERWIEKKLEYSASHPEEADFLITLVSVDEGLRKRILLDLEKSQRVFFDFVREKLKDLDLAEDVTEEIALKFLMWFFSGFEEVYLRTYQGKPELLKRDMNTLVEEVKVMLRILKKGMTK”, the protein production result is given as “not failed”.
“MRNKLLFLALPLLFGLQASAQHTQAFQDTTLTDEQRVEHLLSILTLDEKINLLSTDLGVPRLNIPRCGHYEGLHGLTLGGPAMWGGRQRTEDGKVVPTDCPTTIFPQSYGLGSTWDTDLVQKVAEQAAEEARYYMQTTGNKRHALVMRAPNADLARDPRWGRTEESFGEDAFLTAQLTIASVRGLQGNHPRYWKTASLMKHFLANSNEDGRDSTSSDFDTRLFHEYYAYPFYKGITEGGSRAFMAAYNSWNGIPMSIHPCLEEITRKQWGNNGIICTDGGALKLLIEAHKSFPSFAEGAAAVVKATTGQFLDAYVPYVKEALEKGLLTEVDIDKAIRGNIFVALKLGLLDGDNSRNPYLSIGKNSTETPPFMTAEARRLAREVTAKSVVLLKNKKLLPLDAGKLRKIAVIGPYSDKIVQDWYSGTPPYETTILSGIRNAVKEGTEIIHAEDNRMGQAEKAAAAADVAIVCVGNHPYGTRADWKFSPVPSDGREAVDRKSLMLPDEDLVKLVLKANPNTILVLVSSFPYTINWSQEHVPAIVHITHCSQEQGNGLADVLFGKVNPAGRTVQTWVKDITDLPDIMDYDIRNGRTYMYHQGPVLYPFGYGLSYSDFTYEKIESVKQDKKNIRVTVSVKNTSGRDGEEVVQLYASYPDSKVERPSKQLRAFRRIPIKAGETRKVTLTVPKEELGYWNEGKQMFVVEPGTVKLLIGASSEDIRLEGKIRL”: the protein production result is listed as “failed”.
“MQDRMLRRVFILAGIALLLWVLYLLKPVVIPFVGAFLIAYLFSPLVEKLSKIGLPRWLSISIVFIGIGVLLTWAMWYVVPLVWQQLMYARDSIPSGIHWVNATFLPWVSHTFNVERMEIDTDQISTVVMEYIQTNYSADSIQTMALRLAQSGLNFIQIGGTIVLIPIISFYFLLDWDRMLNSLRRLIPRPYEESTLRIVYECHSVLGAFVKGQFLVMLLLGIVYAVGLQLIGLEVGLIIGMVAGLASIIPYLGFAVGIIAAVIATVFQFGVDWMQLALVGVVFMIGQAVEGYILQPFLLGDKIGLSPVAVVFAVLAGAQLAGFLGMLIALPVAAVIVVLLRHLREAYEHTQMYAGTATVVSTGNGEHISIETENLDLDIEVKNPQDTDTSIDNDRK”: the protein production entry is on record as “failed”.
Take “MLLLSIYISIAIGISFICSVLEAVLLSISPSYIAQLNQQGHPAAEQLSKLKSDIDRPLASILTLNTIAHTIGAATAGAQAAVVFGSEALGIFSAVLTLAILVLSEIVPKTIGATYWRQLAPAAAVSLRWMVWALTPFVWFSEQITKRLARNHEAPKMRDELSAMAILARESGEFAEGESKILSNLLGIQDVPVTQVMTPRPVVFRVDATMTINEFLDKHKDTPFSRPLVYSEQKDNIIGFVHRLELFKMQQSGSGQKQLGAVMRPIQVVLNNTALPKVFDQMMTHRLQLALVVDEYGTVLGLVTLEDIFEHLVGEEIIDEADKSTDMQELAYQRWESWKEMHGVIESRDDDDEELEKQNVEPETQEPTKPDSKES”: the protein production entry is on record as “failed”.
Turning to “MNYEIIDCIDSGTEYCPCHLAESGNCILCSQLNGKDFCDCVNWKGVCIYQEYTWNHNKAKKERSECICKIIKREEIDNNLIVLTIFIRKKLAEDLLYPGSYVFLRPTKSSRYYSSPISIMEASSDENIIKVIIEVKGIKTKSINELKEKDDIVLKGPYWNGVLGLKNIHSAKEGISLIIARGIGEAPIVPIMKKLYSNGNKVVVIADRGKFKANLIDKYLEEFSSETYNFNTLNKDGELPEDFKDFLLNFIRYNKVNLIHISGPNILTSKILDVVDEDIKISCSNNAKMCCGEGICGACSNIYDDDKMKRMCKVQIDPRYLFKGLRSI”, the protein production result was “failed”.
With “MYIKKIVIGLLFVTLVGCSSSPDTEETKEKILIKTNNYSDLIIFYKNQLKVSEDPYTREKLAQAYLDSGDPDSALFAIQYLNEDDDSRSISSFLIEANAQLECGMLEPALDTVNRVYKLNEDNPEIENLLGVIYASKRDLDKSRHYFNLARKHLYSDITIKNNLAILNIIEGKYDQAVKLLLPIYMSNKNDALVQANLMLAMAKAGDLEFMEKVLSPQFSKQEIERRYSILKNTESHRDDTNLFGAD”, the protein production result is recorded as “failed”.
